Data reported in patent publication US20230129258A1 (Bicycle, published 2023).
Starred links: 1 amine or outer side, 2 acyl side, 3 side chain; linkers in the order of their positions; H or OH if unused. Positions of bridges follow the written chain, without caps; N, C: chain ends. Non-standard residues stand in square brackets, D forms with d. Chains are numbered I, II in the order given. No end group written: not given here. *: point of attachment. TATA = O=C(CC[*:1])N1CN(C(=O)CC[*:2])CN(C(=O)CC[*:3])C1; Dip = N[C@H](C(=O)O)C(c1ccccc1)c1ccccc1; 1Nal = N[C@@H](Cc1cccc2ccccc12)C(=O)O; Hyp = O=C(O)[C@@H]1C[C@@H](O)CN1; hArg = N=C(N)NCCCC[C@H](N)C(=O)O; tBuAla = CC(C)(C)C[C@H](N)C(=O)O; Cysteamide = C(CS[*:3])N[*:1]; Cba = N[C@@H](CC1CCC1)C(=O)O; dK(PYA) = not defined here; Nle = CCCC[C@H](N)C(=O)O; Pent4ynoyl = C#CCCC(=O)*; Mpa = O=C(O)CCS

Target: T1, CD137 on Jurkat reporter cells (Promega kit CS196005) (UniProt Q07011 24-255, limits assumed)
T1 sequence (Q07011 24-255 limits assumed): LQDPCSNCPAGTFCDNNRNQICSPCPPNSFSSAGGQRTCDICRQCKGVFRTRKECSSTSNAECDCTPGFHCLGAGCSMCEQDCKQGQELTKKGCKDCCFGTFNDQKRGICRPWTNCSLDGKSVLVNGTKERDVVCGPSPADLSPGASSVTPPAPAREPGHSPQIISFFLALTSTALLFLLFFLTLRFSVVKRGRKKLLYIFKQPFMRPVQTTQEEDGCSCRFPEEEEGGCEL
Experiment: cell-based or functional assay

Binder	Fold improvement in EC50 over BCY10000 on same plate, NCI-H292	Fold improvement in Emax over BCY10000 on same plate, NCI-H292
BCY12588 (linker I:1-I:5-I:15, II:1-II:8-II:15 via TATA; not fully specified (some residues); also: chain 2 present twice on linker, Nectin-4:CD137 1:2, linker at chain B 5 to a chain's N-terminus via N-(acid-PEG3)-N-bis(PEG3-azide)) peptide 1: CP[1Nal]DCM[hArg]DWSTP[Hyp]WC peptide 2: [Mpa][tBuAla]PE[dK](Pent4ynoyl)PYCFADPY[Nle][Cysteamide]	0.72 fold	3.2 fold
BCY12586 (not fully specified; BCY12352: Ac-(SEQ ID NO: 69), [Cysam] third reactive group; TATA; linker at dLys(PYA)4; BCY8116: SEQ ID NO: 1; TATA; linker at N-terminus) peptide 1: CPXDCMXDWSTPXWC peptide 2: CXPEXPYCFADPYXX	1.9 fold	3.79 fold
BCY12587 (linker I:1-I:5-I:15, II:1-II:8-II:15 via TATA; not fully specified (some residues); also: chain 2 present twice on linker, Nectin-4:CD137 1:2, linker at chain B 5 to a chain's N-terminus via N-(acid-PEG3)-N-bis(PEG3-azide)) peptide 1: CP[1Nal]DCM[hArg]DWSTP[Hyp]WC peptide 2: [Mpa][tBuAla]PE[dK](Pent4ynoyl)PYCFADPY[Nle]C	4.2 fold	2.9 fold
BCY12485 (not fully specified; BCY12149: Ac-(SEQ ID NO: 63); TATA; linker at dLys(PYA)4; BCY8116: SEQ ID NO: 1; TATA; linker at N-terminus) peptide 1: CPXDCMXDWSTPXWC peptide 2: CXPEXPYCFADPYXC	3.82 fold	2.18 fold
BCY12484 (not fully specified; BCY12143: Ac-(SEQ ID NO: 64); TATA; linker at dLys(PYA)4; BCY8116: SEQ ID NO: 1; TATA; linker at N-terminus) peptide 1: CPXDCMXDWSTPXWC peptide 2: CXEEXPYCFADPYXC	5.46 fold	1.86 fold
BCY11021 (not fully specified; BCY7744: Ac-A-(SEQ ID NO: 12)-A; TATA; linker at dLys(PYA)4; BCY11016: [PYA]-[B-Ala]-(SEQ ID NO: 1); TATA; linker at N-term PYA) peptide 1: CPXDCMXDWSTPXWC peptide 2: ACIEEXQYCFADPYXCA	9.63 fold	4.42 fold
BCY12486 (not fully specified; BCY12147: Ac-(SEQ ID NO: 65); TATA; linker at dLys(PYA)4; BCY8116: SEQ ID NO: 1; TATA; linker at N-terminus) peptide 1: CPXDCMXDWSTPXWC peptide 2: CXPEXPYCFANPYXC	0.25 fold	1.73 fold
BCY11385 (not fully specified; BCY11014: Ac-(SEQ ID NO: 6)-Dap(PYA); TATA; linker at C-term Dap(PYA); BCY8116: SEQ ID NO: 1; TATA; linker at N-terminus) peptide 1: CPXDCMXDWSTPXWC peptide 2: CXPEAPYCFADPYXCX	9.35 fold	1.28 fold
BCY12590 (linker I:1-I:5-I:15, II:1-II:8-II:15 via TATA; not fully specified (some residues, bridges); also: chains joined via N-(acid-PEG3)-N-bis(PEG3-azide) linker, triazole at dLys(PYA)) peptide 1: CP[1Nal]ECM[hArg]EWSTP[Hyp]WC peptide 2: Ac-C[tBuAla]PE[dK](Pent4ynoyl)PYCFADPY[Nle]CA	5.5 fold	2.73 fold

Target: T1, CD137 on Jurkat reporter cells (Promega …)
Experiment: cell-based or functional assay
Remark: another data set of the same source

Binder	EC50 (nM), HT1376 co-culture	Emax (fold induction over background), HT1376
BCY10918 (not fully specified; BCY8928: Ac-(SEQ ID NO: 11)-A; TATA; linker at dLys(PYA)4; BCY11015: [PYA]-(SEQ ID NO: 1); TATA; linker at N-term PYA) peptide 1: CPXDCMXDWSTPXWC peptide 2: CXPEXPYCFADPYXCA	0.16 nM	–
BCY11027 (not fully specified; BCY8928: Ac-(SEQ ID NO: 11)-A; TATA; linker at dLys(PYA)4; BCY11015: [PYA]-(SEQ ID NO: 1); TATA; linker at N-term PYA) peptide 1: CPXDCMXDWSTPXWC peptide 2: CXPEXPYCFADPYXCA	0.18 nM	–
BCY11022 (not fully specified; BCY8928: Ac-(SEQ ID NO: 11)-A; TATA; linker at dLys(PYA)4; BCY11016: [PYA]-[B-Ala]-(SEQ ID NO: 1); TATA; linker at N-term PYA) peptide 1: CPXDCMXDWSTPXWC peptide 2: CXPEXPYCFADPYXCA	0.2 nM	66 fold over background
BCY10919 (not fully specified; BCY11014: Ac-(SEQ ID NO: 6)-Dap(PYA); TATA; linker at C-term Dap(PYA); BCY11015: [PYA]-(SEQ ID NO: 1); TATA; linker at N-term PYA) peptide 1: CPXDCMXDWSTPXWC peptide 2: CXPEAPYCFADPYXCX	0.19 nM	62 fold over background

Target: T1, CD137 on Jurkat reporter cells (Promega …)
Experiment: cell-based or functional assay
Remark: another data set of the same source

Binder	EC50 (nM), PC3 co-culture	Emax (fold induction over background), PC3
BCY13341 (linker I:1-I:8-I:15, II:1-II:8-II:15 via TATA; reading uncertain; also: linker at chain B 5 to a chain's N-terminus via N-(acid-PEG3)-N-bis(PEG3-azide)) peptide 1: C[Hyp][Cba]VNPLCL[Dip]P[dD]WTC[dA] peptide 2: [Mpa][tBuAla]PE[dK(PYA)]PYCFADPY[Nle]C	0.19 nM	49.1 fold over background
BCY12978 (linker I:4-I:11-I:18, II:1-II:8-II:15 via TATA (inferred); not fully specified (bridges); also: chain 1 N-terminus and chain 2 dLys(PYA) joined through N-(acid-PEG3)-N-bis(PEG3-azide) linker) peptide 1: A[hArg]EC[Hyp]LVNPLCLHP[dE]W[hArg]C peptide 2: Ac-C[tBuAla]PE[dK](Pent4ynoyl)PYCFADPY[Nle]CA	0.05 nM	78.1 fold over background
BCY13049 (linker I:1-I:8-I:15, II:1-II:8-II:15 via TATA (inferred); not fully specified (N-terminus); also: linker joins chain 1 to two chain 2 copies via PYA triazoles) peptide 1: C[Hyp]LVNPLCLEP[dD]WTC[dA] peptide 2: Ac-C[tBuAla]PE[dK](Pent4ynoyl)PYCFADPY[Nle]CA	0.3 nM	46 fold over background
BCY13273 (linker I:1-I:8-I:15 via TATA; linker II:1-II:8-II:15 via TATA (inferred); not fully specified (some residues, N-terminus); also: linker joins chain 1 to two chain 2 copies via PYA triazoles) peptide 1: C[Hyp]LVNPLCL[1Nal]PDWTC peptide 2: Ac-C[tBuAla]PE[dK](Pent4ynoyl)PYCFADPY[Nle]CA	0.13 nM	51.3 fold over background
BCY13280 (linker I:4-I:11-I:18, II:1-II:8-II:15 via TATA (inferred); not fully specified (N-terminus, bridges); also: 1:2 complex: two copies of chain 2 (BCY8928) on the branched linker) peptide 1: [dA]EDC[Hyp]LVNPLCLEP[dD]WTC peptide 2: Ac-C[tBuAla]PE[dK](Pent4ynoyl)PYCFADPY[Nle]CA	0.19 nM	38.1 fold over background
BCY13274 (linker I:1-I:8-I:15 via TATA; linker II:1-II:8-II:15 via TATA (inferred); not fully specified (bridges); also: linker N-(acid-PEG3)-N-bis(PEG3-azide) on C-terminal dK of chain 1, joins two chain 2 copies via PYA triazoles) peptide 1: Ac-C[Hyp]LVNPLCL[Dip]P[dD]WTC[dK] peptide 2: Ac-C[tBuAla]PE[dK](Pent4ynoyl)PYCFADPY[Nle]CA	0.19 nM	47.4 fold over background
BCY13343 (linker I:1-I:8-I:15, II:1-II:8-II:15 via TATA; not fully specified (some residues); reading uncertain; also: 1:2 complex: two copies of chain 2 (BCY12353) on the branched linker, linker at chain B 5 to a chain's N-terminus via N-(acid-PEG3)-N-bis(PEG3-azide)) peptide 1: C[Hyp]LVNPLCL[Dip]PDWTC peptide 2: [Mpa][tBuAla]PE[dK(PYA)]PYCFADPY[Nle]C	0.11 nM	44 fold over background
BCY13053 (linker I:1-I:8-I:15 via TATA; linker II:1-II:8-II:15 via TATA (inferred); not fully specified (N-terminus, bridges); also: 1:2 complex: two copies of chain 2 (BCY8928) on the branched linker) peptide 1: C[Hyp][Cba]VNPLCL[Dip]P[dD]WTC[dA] peptide 2: Ac-C[tBuAla]PE[dK](Pent4ynoyl)PYCFADPY[Nle]CA	0.1 nM	40.3 fold over background
BCY13048 (linker I:1-I:8-I:15 via TATA; linker II:1-II:8-II:15 via TATA (inferred); not fully specified (N-terminus, bridges); also: 1:2 complex: two copies of chain 2 (BCY8928) on the branched linker) peptide 1: C[Hyp]LVNPLCL[Dip]P[dD]WTC peptide 2: Ac-C[tBuAla]PE[dK](Pent4ynoyl)PYCFADPY[Nle]CA	0.09 nM	48.4 fold over background
BCY13281 (not fully specified; BCY8928: Ac-(SEQ ID NO: 11)-A; TATA; linker at dLys(PYA)4; BCY13127: [dA]-[dA]-D-(SEQ ID NO: 35); TATA; linker at N-terminus) peptide 1: AADCXLVNPLCLEPDWTC peptide 2: CXPEXPYCFADPYXCA	0.17 nM	35.6 fold over background
BCY13282 (linker I:3-I:10-I:17, II:1-II:8-II:15 via TATA (inferred); not fully specified (N-terminus, bridges); also: 1:2 complex: two BCY8928 chains on the linker) peptide 1: ADC[Hyp]LVNPLCLEP[dD]WTC peptide 2: Ac-C[tBuAla]PE[dK](Pent4ynoyl)PYCFADPY[Nle]CA	0.22 nM	40 fold over background
